This is an account of results in paper PMC9930725 (Nature, 2022).

The data set “thermal reversion rate” concerns the molecule itself. In words: thermal reversion rate.
The data set “SEC” deals with the molecule itself. The experiment in a line: SEC.

B1: PhyB N908 fragment (domain or fragment, Arabidopsis thaliana, UniProt P14713 1-908, looked up)
chain: MVSGVGGSGGGRGGGRGGEEEPSSSHTPNNRRGGEQAQSSGTKSLRPRSNTESMSKAIQQYTVDARLHAVFEQSGESGKSFDYSQSLKTTTYGSSVPEQQITAYLSRIQRGGYIQPFGCMIAVDESSFRIIGYSENAREMLGIMPQSVPTLEKPEILAMGTDVRSLFTSSSSILLERAFVAREITLLNPVWIHSKNTGKPFYAILHRIDVGVVIDLEPARTEDPALSIAGAVQSQKLAVRAISQLQALPGGDIKLLCDTVVESVRDLTGYDRVMVYKFHEDEHGEVVAESKRDDLEPYIGLHYPATDIPQASRFLFKQNRVRMIVDCNATPVLVVQDDRLTQSMCLVGSTLRAPHGCHSQYMANMGSIASLAMAVIINGNEDDGSNVASGRSSMRLWGLVVCHHTSSRCIPFPLRYACEFLMQAFGLQLNMELQLALQMSEKRVLRTQTLLCDMLLRDSPAGIVTQSPSIMDLVKCDGAAFLYHGKYYPLGVAPSEVQIKDVVEWLLANHADSTGLSTDSLGDAGYPGAAALGDAVCGMAVAYITKRDFLFWFRSHTAKEIKWGGAKHHPEDKDDGQRMHPRSSFQAFLEVVKSRSQPWETAEMDAIHSLQLILRDSFKESEAAMNSKVVDGVVQPCRDMAGEQGIDELGAVAREMVRLIETATVPIFAVDAGGCINGWNAKIAELTGLSVEEAMGKSLVSDLIYKENEATVNKLLSRALRGDEEKNVEVKLKTFSPELQGKAVFVVVNACSSKDYLNNIVGVCFVGQDVTSQKIVMDKFINIQGDYKAIVHSPNPLIPPIFAADENTCCLEWNMAMEKLTGWSRSEVIGKMIVGEVFGSCCMLKGPDALTKFMIVLHNAIGGQDTDKFPFPFFDRNGKFVQALLTANKRVSLEGKVIGAFCFLQIPS
modifications: phytochromobilin (PΦB) bound
For B1, the Kd in the data set “thermal reversion rate” was about 26 nM.

B2: PhyB N908(L427A) (domain or fragment, Arabidopsis thaliana, UniProt P14713 1-908, looked up)
chain: MVSGVGGSGGGRGGGRGGEEEPSSSHTPNNRRGGEQAQSSGTKSLRPRSNTESMSKAIQQYTVDARLHAVFEQSGESGKSFDYSQSLKTTTYGSSVPEQQITAYLSRIQRGGYIQPFGCMIAVDESSFRIIGYSENAREMLGIMPQSVPTLEKPEILAMGTDVRSLFTSSSSILLERAFVAREITLLNPVWIHSKNTGKPFYAILHRIDVGVVIDLEPARTEDPALSIAGAVQSQKLAVRAISQLQALPGGDIKLLCDTVVESVRDLTGYDRVMVYKFHEDEHGEVVAESKRDDLEPYIGLHYPATDIPQASRFLFKQNRVRMIVDCNATPVLVVQDDRLTQSMCLVGSTLRAPHGCHSQYMANMGSIASLAMAVIINGNEDDGSNVASGRSSMRLWGLVVCHHTSSRCIPFPLRYACEFLMQAFGAQLNMELQLALQMSEKRVLRTQTLLCDMLLRDSPAGIVTQSPSIMDLVKCDGAAFLYHGKYYPLGVAPSEVQIKDVVEWLLANHADSTGLSTDSLGDAGYPGAAALGDAVCGMAVAYITKRDFLFWFRSHTAKEIKWGGAKHHPEDKDDGQRMHPRSSFQAFLEVVKSRSQPWETAEMDAIHSLQLILRDSFKESEAAMNSKVVDGVVQPCRDMAGEQGIDELGAVAREMVRLIETATVPIFAVDAGGCINGWNAKIAELTGLSVEEAMGKSLVSDLIYKENEATVNKLLSRALRGDEEKNVEVKLKTFSPELQGKAVFVVVNACSSKDYLNNIVGVCFVGQDVTSQKIVMDKFINIQGDYKAIVHSPNPLIPPIFAADENTCCLEWNMAMEKLTGWSRSEVIGKMIVGEVFGSCCMLKGPDALTKFMIVLHNAIGGQDTDKFPFPFFDRNGKFVQALLTANKRVSLEGKVIGAFCFLQIPS
modifications: phytochromobilin (PΦB) bound
Take B2: in the data set “SEC”, the binding result is given as “binds”.

B3: Arabidopsis thaliana phytochrome B, full length (natural protein, UniProt P14713 1-1172, looked up)
chain: MVSGVGGSGGGRGGGRGGEEEPSSSHTPNNRRGGEQAQSSGTKSLRPRSNTESMSKAIQQYTVDARLHAVFEQSGESGKSFDYSQSLKTTTYGSSVPEQQITAYLSRIQRGGYIQPFGCMIAVDESSFRIIGYSENAREMLGIMPQSVPTLEKPEILAMGTDVRSLFTSSSSILLERAFVAREITLLNPVWIHSKNTGKPFYAILHRIDVGVVIDLEPARTEDPALSIAGAVQSQKLAVRAISQLQALPGGDIKLLCDTVVESVRDLTGYDRVMVYKFHEDEHGEVVAESKRDDLEPYIGLHYPATDIPQASRFLFKQNRVRMIVDCNATPVLVVQDDRLTQSMCLVGSTLRAPHGCHSQYMANMGSIASLAMAVIINGNEDDGSNVASGRSSMRLWGLVVCHHTSSRCIPFPLRYACEFLMQAFGLQLNMELQLALQMSEKRVLRTQTLLCDMLLRDSPAGIVTQSPSIMDLVKCDGAAFLYHGKYYPLGVAPSEVQIKDVVEWLLANHADSTGLSTDSLGDAGYPGAAALGDAVCGMAVAYITKRDFLFWFRSHTAKEIKWGGAKHHPEDKDDGQRMHPRSSFQAFLEVVKSRSQPWETAEMDAIHSLQLILRDSFKESEAAMNSKVVDGVVQPCRDMAGEQGIDELGAVAREMVRLIETATVPIFAVDAGGCINGWNAKIAELTGLSVEEAMGKSLVSDLIYKENEATVNKLLSRALRGDEEKNVEVKLKTFSPELQGKAVFVVVNACSSKDYLNNIVGVCFVGQDVTSQKIVMDKFINIQGDYKAIVHSPNPLIPPIFAADENTCCLEWNMAMEKLTGWSRSEVIGKMIVGEVFGSCCMLKGPDALTKFMIVLHNAIGGQDTDKFPFPFFDRNGKFVQALLTANKRVSLEGKVIGAFCFLQIPSPELQQALAVQRRQDTECFTKAKELAYICQVIKNPLSGMRFANSLLEATDLNEDQKQLLETSVSCEKQISRIVGDMDLESIEDGSFVLKREEFFLGSVINAIVSQAMFLLRDRGLQLIRDIPEEIKSIEVFGDQIRIQQLLAEFLLSIIRYAPSQEWVEIHLSQLSKQMADGFAAIRTEFRMACPGEGLPPELVRDMFHSSRWTSPEGLGLSVCRKILKLMNGEVQYIRESERSYFLIILELPVPRKRPLSTASGSGDMMLMMPY
modifications: phytochromobilin (PΦB) covalently linked to Cys357
Regarding B3, the “stoichiometry N” value in the data set “SEC” is 2.

B4: PhyB N982 fragment (domain or fragment, Arabidopsis thaliana, UniProt P14713 1-982, looked up)
chain: MVSGVGGSGGGRGGGRGGEEEPSSSHTPNNRRGGEQAQSSGTKSLRPRSNTESMSKAIQQYTVDARLHAVFEQSGESGKSFDYSQSLKTTTYGSSVPEQQITAYLSRIQRGGYIQPFGCMIAVDESSFRIIGYSENAREMLGIMPQSVPTLEKPEILAMGTDVRSLFTSSSSILLERAFVAREITLLNPVWIHSKNTGKPFYAILHRIDVGVVIDLEPARTEDPALSIAGAVQSQKLAVRAISQLQALPGGDIKLLCDTVVESVRDLTGYDRVMVYKFHEDEHGEVVAESKRDDLEPYIGLHYPATDIPQASRFLFKQNRVRMIVDCNATPVLVVQDDRLTQSMCLVGSTLRAPHGCHSQYMANMGSIASLAMAVIINGNEDDGSNVASGRSSMRLWGLVVCHHTSSRCIPFPLRYACEFLMQAFGLQLNMELQLALQMSEKRVLRTQTLLCDMLLRDSPAGIVTQSPSIMDLVKCDGAAFLYHGKYYPLGVAPSEVQIKDVVEWLLANHADSTGLSTDSLGDAGYPGAAALGDAVCGMAVAYITKRDFLFWFRSHTAKEIKWGGAKHHPEDKDDGQRMHPRSSFQAFLEVVKSRSQPWETAEMDAIHSLQLILRDSFKESEAAMNSKVVDGVVQPCRDMAGEQGIDELGAVAREMVRLIETATVPIFAVDAGGCINGWNAKIAELTGLSVEEAMGKSLVSDLIYKENEATVNKLLSRALRGDEEKNVEVKLKTFSPELQGKAVFVVVNACSSKDYLNNIVGVCFVGQDVTSQKIVMDKFINIQGDYKAIVHSPNPLIPPIFAADENTCCLEWNMAMEKLTGWSRSEVIGKMIVGEVFGSCCMLKGPDALTKFMIVLHNAIGGQDTDKFPFPFFDRNGKFVQALLTANKRVSLEGKVIGAFCFLQIPSPELQQALAVQRRQDTECFTKAKELAYICQVIKNPLSGMRFANSLLEATDLNEDQKQLLETSVSCEKQISRIVGD
modifications: phytochromobilin (PΦB) bound
On to B4, for which, in the data set “SEC”, the binding result is “binds”.
